Assay results reported in US20230192860A1 (Bristol-Myers Squibb, published 2023).

Experiments:
[1] = molecular target: T1, monovalent hVISTA-ECD (amino acids 32-193 of SEQ ID NO: 1 with a 7xHis tail) (human, UniProt Q9H7M9 33-193); test: SPR 37C, Ab on Protein A, hVISTA-ECD 50-5 nM, pH 6.0, average
T1 construct: analyte of the SPR assays; also called huVISTA-His; human VISTA-ECD
Experimental: Binding of several preparations of each of the ‘029 progeny clones and of the parent ‘029 antibodies, formatted as IgG1.3 antibodies, to human VISTA at pH 6.0 and 7.4 was measured by Surface plasmon resonance (SPR). SPR analysis was performed to measure koff and KD binding affinity measurements for VISTA Abs at acidic and neutral pHs using a Biacore® T100 instrument (GE Healthcare). […] Antibodies were diluted to 25 nM in PBST pH 7.4, and were captured across active biosensor flow cells at 5 ul/min for 60 seconds. A concentration series of 50 - 5 nM monovalent hVISTA-ECD (SEQ ID NO: 325) was prepared in pH 7.4 and 6.0 running buffers, and was injected over the captured antibodies at 40 ul/min to measure association and dissociation. Two 15 second injections of 10 mM glycine pH 1.5 were used to regenerate the Protein A capture surface between assay cycles. Rate constants ka (kₒₙ) and kd (koff) were derived from reference flow cell and 0 nM blank-subtracted sensorgrams, and were fit to a 1:1 binding model in Biacore® T200 Evaluation Software v.2.0. The affinity constant, KD was calculated as the ratio of rate constants koff/kₒₙ for each VISTA antibody.

hVISTA-ECD 6-His tag [2] = molecular target: T2, hVISTA-ECD 6-His tag (human, UniProt Q9H7M9 33-193); test: SPR 37 C, Ab on Protein A, pH 6.0
T2 construct: also called monovalent hVISTA-ECD; human VISTA

hVISTA-ECD 6-His tag [3] = molecular target: T2, hVISTA-ECD 6-His tag; test: SPR 37 C, Ab on Protein A, pH 7.4
hVISTA-ECD 6-His tag [4] = molecular target: T2, hVISTA-ECD 6-His tag; test: SPR, Ab on Protein A, hVISTA analyte, pH 6.0

T1 sequence (Q9H7M9 other isoform, or with tags, fused parts or gaps limits assumed): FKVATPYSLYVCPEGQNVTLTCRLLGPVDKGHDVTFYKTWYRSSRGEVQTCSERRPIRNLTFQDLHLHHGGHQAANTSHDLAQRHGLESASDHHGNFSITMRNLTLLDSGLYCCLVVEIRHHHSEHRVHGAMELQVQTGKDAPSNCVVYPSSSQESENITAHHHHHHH
T2 sequence (Q9H7M9 other isoform, or with tags, fused parts or gaps limits assumed): as above

| Binder | Kd [1] [nM] | koff [1] [s⁻¹] | kon [1] [M⁻¹ s⁻¹] | Kd (hVISTA-ECD 6-His tag [2]) [nM] | koff (hVISTA-ECD 6-His tag [2]) [s⁻¹] | kon (hVISTA-ECD 6-His tag [2]) [M⁻¹ s⁻¹] | Kd (hVISTA-ECD 6-His tag [3]) [nM] | koff (hVISTA-ECD 6-His tag [3]) [s⁻¹] | kon (hVISTA-ECD 6-His tag [3]) [M⁻¹ s⁻¹] | other results |
| --- | --- | --- | --- | --- | --- | --- | --- | --- | --- | --- |
| P1-068736 (antibody, human IgG1, kappa, V domains shown, IgG1.3) VH: QVQLVESGGGVVQPGRSLRLSCAASGFTFSEYAMHWVRQAPGKGLEWVAIDWYDGSNKDYADSVKGRFTISRDNSKNTLYLQMNSLRAEDTAVYYCARDSGFYDSYYFDDWGQGTLVTVSS VL: EIVLTQSPATLSLSPGERATLSCRASQSVSSSYLAWYQQKPGQAPRLLIYDASNRATGIPARFSGSGSGTDFTLTISSLEPEDFATYYCQQYNSYPYTFGQGTKLEIKR | 1.1 | 0.0095 | 8.4e+06 |  |  |  |  |  |  |  |
| P1-077835 (P1-068744 E31S) (antibody, V domains shown) VH: QVQLVESGGGVVQPGRSLRLSCAASGFTFSSYAMHWVRQAPGKGLEWVAHIWYDGSNKYEADSVKGRFTISRDNSKNTLYLQMNSLRAEDTAVYYCARDSGFYESYYFDEWGQGTLVTVSS VL: EIVLTQSPATLSLSPGERATLSCRASQSVSSSYLAWYQQKPGQAPRLLIYDASNRATGIPARFSGSGSGTDFTLTISSLEPEDFATYYCQQYNSYPYTFGQGTKLEIK |  |  |  | 7.7 | 0.0017 | 220000 | 660 | 0.026 | 39000 |  |
| P1-068744 (antibody, human IgG1, kappa, V domains shown, IgG1.3; also called P1-068744-7) VH: QVQLVESGGGVVQPGRSLRLSCAASGFTFSEYAMHWVRQAPGKGLEWVAHIWYDGSNKYEADSVKGRFTISRDNSKNTLYLQMNSLRAEDTAVYYCARDSGFYESYYFDEWGQGTLVTVSS VL: EIVLTQSPATLSLSPGERATLSCRASQSVSSSYLAWYQQKPGQAPRLLIYDASNRATGIPARFSGSGSGTDFTLTISSLEPEDFATYYCQQYNSYPYTFGQGTKLEIKR | 1.3 | 0.0018 | 1.3e+06 |  |  |  |  |  |  |  |
| P1-068752 (antibody, human IgG1, kappa, V domains shown, IgG1.3) VH: QVQLVESGGGVVQPGRSLRLSCAASGFTFSSYAMHWVRQAPGKGLEWVAEIWYDGSNKDYADSVKGRFTISRDNSKNTLYLQMNSLRAEDTAVYYCARDSGFYDSYYFDEWGQGTLVTVSS VL: EIVLTQSPATLSLSPGERATLSCRASQSVSSSYLAWYQQKPGQAPRLLIYDASNRATGIPARFSGSGSGTDFTLTISSLEPEDFATYYCQQYNSYPYTFGQGTKLEIKR | 5.6 | 0.034 | 6.1e+06 |  |  |  |  |  |  |  |
| P1-068759 (antibody, human IgG1, kappa, V domains shown, also called P1-068759-9; 029 progeny) VH: EVQLVESGGGLVQPGKSLRLSCAASGFTLEDEAMHWVRQAPGKGLEWVSGIDWNSENIGYADSVKGRFTISRDNAKNSLYLQMNSLRTEDTALYYCAKVPGYSGGWIDAEDDWGQGTMVTVSS VL: not shown |  |  |  |  |  |  |  |  |  | Kd (hVISTA-ECD 6-His tag [4]): 96 nM; koff (hVISTA-ECD 6-His tag [4]): 0.058 s⁻¹; kon (hVISTA-ECD 6-His tag [4]): 600000 M⁻¹ s⁻¹ |

More lines, main results first:

| Kd [1] [nM] | koff [1] [s⁻¹] | kon [1] [M⁻¹ s⁻¹] | Kd (hVISTA-ECD 6-His tag [2]) [nM] | koff (hVISTA-ECD 6-His tag [2]) [s⁻¹] | kon (hVISTA-ECD 6-His tag [2]) [M⁻¹ s⁻¹] | Kd (hVISTA-ECD 6-His tag [3]) [nM] | koff (hVISTA-ECD 6-His tag [3]) [s⁻¹] | kon (hVISTA-ECD 6-His tag [3]) [M⁻¹ s⁻¹] | Binder | other results |
| --- | --- | --- | --- | --- | --- | --- | --- | --- | --- | --- |
|  |  |  | 85 | 0.054 | 630000 | 1300 | 0.093 | 71000 | P1-077839 (P1-068744 E59Y) (antibody, V domains shown) VH: QVQLVESGGGVVQPGRSLRLSCAASGFTFSEYAMHWVRQAPGKGLEWVAHIWYDGSNKYYADSVKGRFTISRDNSKNTLYLQMNSLRAEDTAVYYCARDSGFYESYYFDEWGQGTLVTVSS VL: EIVLTQSPATLSLSPGERATLSCRASQSVSSSYLAWYQQKPGQAPRLLIYDASNRATGIPARFSGSGSGTDFTLTISSLEPEDFATYYCQQYNSYPYTFGQGTKLEIK |  |
|  |  |  | 2.5 | 0.003 | 1.2e+06 | 26 | 0.0033 | 130000 | P1-077837 (P1-068744 H50I) (antibody, V domains shown) VH: QVQLVESGGGVVQPGRSLRLSCAASGFTFSEYAMHWVRQAPGKGLEWVAIIWYDGSNKYEADSVKGRFTISRDNSKNTLYLQMNSLRAEDTAVYYCARDSGFYESYYFDEWGQGTLVTVSS VL: EIVLTQSPATLSLSPGERATLSCRASQSVSSSYLAWYQQKPGQAPRLLIYDASNRATGIPARFSGSGSGTDFTLTISSLEPEDFATYYCQQYNSYPYTFGQGTKLEIK |  |
| 19 | 0.017 | 890000 |  |  |  |  |  |  | P1-068757 (antibody, human IgG1, kappa, V domains shown, IgG1.3; also called P1-068757-9) VH: EVQLVESGGGLVQPGKSLRLSCAASGFTLEDEAMHWVRQAPGKGLEWVSGINWNSEEIGYADSVKGRFTISRDNAKNSLYLQMNSLRTEDTALYYCAKVPGYSGGWIDAEDDWGQGTMVTVSS VL: not shown |  |
| 9.4 | 0.0029 | 300000 |  |  |  |  |  |  | P1-068773 (antibody, human IgG1, kappa, V domains shown, IgG1.3) VH: EVQLVESGGGLVQPGKSLRLSCAASGFTLEDYAMHWVRQAPGKGLEWVSGIDWNSDNIGYADSVKGRFTISRDNAKNSLYLQMNSLRTEDTALYYCAKVPGYSGGWIDAEDDWGQGTMVTVSS VL: not shown |  |
